Biological target: lamprey serum spherical lectin (LSSL), native, from lamprey serum (Lampetra japonica (endogenous in lamprey serum))
Experiment: cryo-EM structure; native LSSL purified from serum, 2 μg/μL, vitrified; Titan Krios 300 kV; RELION 3.1

“lamprey serum spherical lectin (LSSL), native, from lamprey serum (natural protein)” was tested, and the stoichiometry N was 3.

From article PMC9682848
